Measured values: patent US20260209293A1 (Novo Nordisk, published 2026)
*1 amine or outer side, *2 acyl side, *3 side chain or, on linkers, in order; H or OH if unused. The star is where a group is joined. C18 diacid = O=C(O)CCCCCCCCCCCCCCCCC(=O)*; γGlu = O=C(O)[C@H](CCC(=O)[*:2])N[*:1]

Tests used:
[1] = biological target: T1, human calcitonin receptor (a) (human, UniProt P30988 25-474); assay: cell-based or functional assay
T1 sequence (looked up): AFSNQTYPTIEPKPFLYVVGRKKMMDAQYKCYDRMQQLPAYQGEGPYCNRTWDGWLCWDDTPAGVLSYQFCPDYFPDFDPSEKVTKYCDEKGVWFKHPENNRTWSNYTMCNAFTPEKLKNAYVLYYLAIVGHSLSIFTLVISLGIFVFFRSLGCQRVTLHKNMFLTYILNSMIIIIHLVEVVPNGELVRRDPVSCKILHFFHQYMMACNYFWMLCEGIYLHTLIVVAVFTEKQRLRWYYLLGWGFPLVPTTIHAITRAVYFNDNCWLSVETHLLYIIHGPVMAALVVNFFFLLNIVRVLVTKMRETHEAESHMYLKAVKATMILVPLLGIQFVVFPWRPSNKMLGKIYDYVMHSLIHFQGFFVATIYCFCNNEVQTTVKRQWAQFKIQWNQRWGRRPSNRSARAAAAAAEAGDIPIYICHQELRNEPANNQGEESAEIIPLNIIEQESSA

[2] = biological target: T2, human amylin-3(a) receptor (human, UniProt P30988 25-474; O60896 24-148); assay: cell-based or functional assay
T2 sequence (looked up) 1: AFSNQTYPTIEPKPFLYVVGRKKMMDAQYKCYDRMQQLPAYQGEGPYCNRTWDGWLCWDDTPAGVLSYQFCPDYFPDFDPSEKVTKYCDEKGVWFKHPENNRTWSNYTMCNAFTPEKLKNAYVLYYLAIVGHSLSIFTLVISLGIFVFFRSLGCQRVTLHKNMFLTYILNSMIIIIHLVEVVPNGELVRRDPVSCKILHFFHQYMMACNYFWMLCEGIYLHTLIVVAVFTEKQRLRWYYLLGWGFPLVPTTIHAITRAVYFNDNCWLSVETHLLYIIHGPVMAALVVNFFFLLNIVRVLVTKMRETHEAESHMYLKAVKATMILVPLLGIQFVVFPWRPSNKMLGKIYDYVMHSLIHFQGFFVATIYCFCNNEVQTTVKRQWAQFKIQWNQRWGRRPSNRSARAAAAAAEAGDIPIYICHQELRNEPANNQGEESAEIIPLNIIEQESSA
T2 sequence (looked up) 2: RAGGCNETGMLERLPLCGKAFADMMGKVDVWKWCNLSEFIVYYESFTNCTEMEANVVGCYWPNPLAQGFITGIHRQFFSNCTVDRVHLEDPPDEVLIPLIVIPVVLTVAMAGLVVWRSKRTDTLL

Row | Binder | hCalcR potency, EC50 (pM); CRE-luciferase reporter in BHK cells [1] | hAmyR3 potency, EC50 (pM); CRE-luciferase reporter in BHK cells [2]
1 | {C18 diacid-γGlu}-ASNLATAQTQRLAEFLHHSSDPFGAIPSSTDVGPDTP-NH2 (SMILES CC[C@H](C)[C@H](NC(=O)[C@H](C)NC(=O)CNC(=O)[C@H](Cc1ccccc1)NC(=O)[C@@H]1CCCN1C(=O)[C@H](CC(=O)O)NC(=O)[C@H](CO)NC(=O)[C@H](CO)NC(=O)[C@H](Cc1c[nH]cn1)NC(=O)[C@H](Cc1c[nH]cn1)NC(=O)[C@H](CC(C)C)NC(=O)[C@H](Cc1ccccc1)NC(=O)[C@H](CCC(=O)O)NC(=O)[C@H](C)NC(=O)[C@H](CC(C)C)NC(=O)[C@H](CCCNC(=N)N)NC(=O)[C@H](CCC(N)=O)NC(=O)[C@@H](NC(=O)[C@H](CCC(N)=O)NC(=O)[C@H](C)NC(=O)[C@@H](NC(=O)[C@H](C)NC(=O)[C@H](CC(C)C)NC(=O)[C@H](CC(N)=O)NC(=O)[C@H](CO)NC(=O)[C@H](C)NC(=O)CC[C@H](NC(=O)CCCCCCCCCCCCCCCCC(=O)O)C(=O)O)[C@@H](C)O)[C@@H](C)O)C(=O)N1CCC[C@H]1C(=O)N[C@@H](CO)C(=O)N[C@@H](CO)C(=O)N[C@H](C(=O)N[C@@H](CC(=O)O)C(=O)N[C@H](C(=O)NCC(=O)N1CCC[C@H]1C(=O)N[C@@H](CC(=O)O)C(=O)N[C@H](C(=O)N1CCC[C@H]1C(N)=O)[C@@H](C)O)C(C)C)[C@@H](C)O) | 1.99 pM | 1.88 pM
2 | {C18 diacid-γGlu}-AGELSTAQTQRLAEFLHHSSDPFGAIPSSTDVGPDTP-NH2 (SMILES CC[C@H](C)[C@H](NC(=O)[C@H](C)NC(=O)CNC(=O)[C@H](Cc1ccccc1)NC(=O)[C@@H]1CCCN1C(=O)[C@H](CC(=O)O)NC(=O)[C@H](CO)NC(=O)[C@H](CO)NC(=O)[C@H](Cc1c[nH]cn1)NC(=O)[C@H](Cc1c[nH]cn1)NC(=O)[C@H](CC(C)C)NC(=O)[C@H](Cc1ccccc1)NC(=O)[C@H](CCC(=O)O)NC(=O)[C@H](C)NC(=O)[C@H](CC(C)C)NC(=O)[C@H](CCCNC(=N)N)NC(=O)[C@H](CCC(N)=O)NC(=O)[C@@H](NC(=O)[C@H](CCC(N)=O)NC(=O)[C@H](C)NC(=O)[C@@H](NC(=O)[C@H](CO)NC(=O)[C@H](CC(C)C)NC(=O)[C@H](CCC(=O)O)NC(=O)CNC(=O)[C@H](C)NC(=O)CC[C@H](NC(=O)CCCCCCCCCCCCCCCCC(=O)O)C(=O)O)[C@@H](C)O)[C@@H](C)O)C(=O)N1CCC[C@H]1C(=O)N[C@@H](CO)C(=O)N[C@@H](CO)C(=O)N[C@H](C(=O)N[C@@H](CC(=O)O)C(=O)N[C@H](C(=O)NCC(=O)N1CCC[C@H]1C(=O)N[C@@H](CC(=O)O)C(=O)N[C@H](C(=O)N1CCC[C@H]1C(N)=O)[C@@H](C)O)C(C)C)[C@@H](C)O) | 1.58 pM | 2.43 pM
3 | {C18 diacid-γGlu}-AGSLSTAQTARLAEFLHHSSDNFGPILPPTDVGSNTP-NH2 (SMILES CC[C@H](C)[C@H](NC(=O)[C@@H]1CCCN1C(=O)CNC(=O)[C@H](Cc1ccccc1)NC(=O)[C@H](CC(N)=O)NC(=O)[C@H](CC(=O)O)NC(=O)[C@H](CO)NC(=O)[C@H](CO)NC(=O)[C@H](Cc1c[nH]cn1)NC(=O)[C@H](Cc1c[nH]cn1)NC(=O)[C@H](CC(C)C)NC(=O)[C@H](Cc1ccccc1)NC(=O)[C@H](CCC(=O)O)NC(=O)[C@H](C)NC(=O)[C@H](CC(C)C)NC(=O)[C@H](CCCNC(=N)N)NC(=O)[C@H](C)NC(=O)[C@@H](NC(=O)[C@H](CCC(N)=O)NC(=O)[C@H](C)NC(=O)[C@@H](NC(=O)[C@H](CO)NC(=O)[C@H](CC(C)C)NC(=O)[C@H](CO)NC(=O)CNC(=O)[C@H](C)NC(=O)CC[C@H](NC(=O)CCCCCCCCCCCCCCCCC(=O)O)C(=O)O)[C@@H](C)O)[C@@H](C)O)C(=O)N[C@@H](CC(C)C)C(=O)N1CCC[C@H]1C(=O)N1CCC[C@H]1C(=O)N[C@H](C(=O)N[C@@H](CC(=O)O)C(=O)N[C@H](C(=O)NCC(=O)N[C@@H](CO)C(=O)N[C@@H](CC(N)=O)C(=O)N[C@H](C(=O)N1CCC[C@H]1C(N)=O)[C@@H](C)O)C(C)C)[C@@H](C)O) | 1.58 pM | 1.36 pM

The remaining lines, values ahead:

Row | hCalcR potency, EC50 (pM); CRE-luciferase reporter in BHK cells [1] | hAmyR3 potency, EC50 (pM); CRE-luciferase reporter in BHK cells [2] | Binder
4 | 1.01 pM | 0.81 pM | {C18 diacid-γGlu}-AGSLSTAQTARLAEFLHHFGPILPPTDVGSETP-NH2 (SMILES CC[C@H](C)[C@H](NC(=O)[C@@H]1CCCN1C(=O)CNC(=O)[C@H](Cc1ccccc1)NC(=O)[C@H](Cc1c[nH]cn1)NC(=O)[C@H](Cc1c[nH]cn1)NC(=O)[C@H](CC(C)C)NC(=O)[C@H](Cc1ccccc1)NC(=O)[C@H](CCC(=O)O)NC(=O)[C@H](C)NC(=O)[C@H](CC(C)C)NC(=O)[C@H](CCCNC(=N)N)NC(=O)[C@H](C)NC(=O)[C@@H](NC(=O)[C@H](CCC(N)=O)NC(=O)[C@H](C)NC(=O)[C@@H](NC(=O)[C@H](CO)NC(=O)[C@H](CC(C)C)NC(=O)[C@H](CO)NC(=O)CNC(=O)[C@H](C)NC(=O)CC[C@H](NC(=O)CCCCCCCCCCCCCCCCC(=O)O)C(=O)O)[C@@H](C)O)[C@@H](C)O)C(=O)N[C@@H](CC(C)C)C(=O)N1CCC[C@H]1C(=O)N1CCC[C@H]1C(=O)N[C@H](C(=O)N[C@@H](CC(=O)O)C(=O)N[C@H](C(=O)NCC(=O)N[C@@H](CO)C(=O)N[C@@H](CCC(=O)O)C(=O)N[C@H](C(=O)N1CCC[C@H]1C(N)=O)[C@@H](C)O)C(C)C)[C@@H](C)O)
5 | 1.63 pM | 1.28 pM | {C18 diacid-γGlu}-ASHLSTAQTARLAEFLHHSSDNFGPILPPTDVGSNTP-NH2 (SMILES CC[C@H](C)[C@H](NC(=O)[C@@H]1CCCN1C(=O)CNC(=O)[C@H](Cc1ccccc1)NC(=O)[C@H](CC(N)=O)NC(=O)[C@H](CC(=O)O)NC(=O)[C@H](CO)NC(=O)[C@H](CO)NC(=O)[C@H](Cc1c[nH]cn1)NC(=O)[C@H](Cc1c[nH]cn1)NC(=O)[C@H](CC(C)C)NC(=O)[C@H](Cc1ccccc1)NC(=O)[C@H](CCC(=O)O)NC(=O)[C@H](C)NC(=O)[C@H](CC(C)C)NC(=O)[C@H](CCCNC(=N)N)NC(=O)[C@H](C)NC(=O)[C@@H](NC(=O)[C@H](CCC(N)=O)NC(=O)[C@H](C)NC(=O)[C@@H](NC(=O)[C@H](CO)NC(=O)[C@H](CC(C)C)NC(=O)[C@H](Cc1c[nH]cn1)NC(=O)[C@H](CO)NC(=O)[C@H](C)NC(=O)CC[C@H](NC(=O)CCCCCCCCCCCCCCCCC(=O)O)C(=O)O)[C@@H](C)O)[C@@H](C)O)C(=O)N[C@@H](CC(C)C)C(=O)N1CCC[C@H]1C(=O)N1CCC[C@H]1C(=O)N[C@H](C(=O)N[C@@H](CC(=O)O)C(=O)N[C@H](C(=O)NCC(=O)N[C@@H](CO)C(=O)N[C@@H](CC(N)=O)C(=O)N[C@H](C(=O)N1CCC[C@H]1C(N)=O)[C@@H](C)O)C(C)C)[C@@H](C)O)
6 | 1.03 pM | 1.25 pM | {C18 diacid-γGlu}-AGELSTAQTARLAEFLHHFGPILPPTDVGSETP-NH2 (SMILES CC[C@H](C)[C@H](NC(=O)[C@@H]1CCCN1C(=O)CNC(=O)[C@H](Cc1ccccc1)NC(=O)[C@H](Cc1c[nH]cn1)NC(=O)[C@H](Cc1c[nH]cn1)NC(=O)[C@H](CC(C)C)NC(=O)[C@H](Cc1ccccc1)NC(=O)[C@H](CCC(=O)O)NC(=O)[C@H](C)NC(=O)[C@H](CC(C)C)NC(=O)[C@H](CCCNC(=N)N)NC(=O)[C@H](C)NC(=O)[C@@H](NC(=O)[C@H](CCC(N)=O)NC(=O)[C@H](C)NC(=O)[C@@H](NC(=O)[C@H](CO)NC(=O)[C@H](CC(C)C)NC(=O)[C@H](CCC(=O)O)NC(=O)CNC(=O)[C@H](C)NC(=O)CC[C@H](NC(=O)CCCCCCCCCCCCCCCCC(=O)O)C(=O)O)[C@@H](C)O)[C@@H](C)O)C(=O)N[C@@H](CC(C)C)C(=O)N1CCC[C@H]1C(=O)N1CCC[C@H]1C(=O)N[C@H](C(=O)N[C@@H](CC(=O)O)C(=O)N[C@H](C(=O)NCC(=O)N[C@@H](CO)C(=O)N[C@@H](CCC(=O)O)C(=O)N[C@H](C(=O)N1CCC[C@H]1C(N)=O)[C@@H](C)O)C(C)C)[C@@H](C)O)
